Laboratory results: patent US12269859B2, “Synthetic immune receptors and methods of use thereof” (Angeles Therapeutics, Inc., priority 2016, dated 2025)

B1: 041417-B06 (protein)
chain: MALPVTALLLPLALLLHAARPEVQLQQSGPGLVKPSQTLSLTCAISGDSVLSNSDTWNWIRQSPSRGLEWLGRTYHRSTWYDDYASSVRGRVSINVDTSKNQYSLQLNAVTPEDTGVYYCARDRLQDGNSWSDAFDVWGQGTMVTVSSLEIQNPDPAVYQLRDSKSSDKSVCLFTDFDSQTNVSQSKDSDVYITDKCVLDMRSMDFKSNSAVAWSNKSDFACANAFNNSIIPEDTFFPSSDVPCDVKLVEKSFETDTNLNFQNLSVIGFRILLLKVAGFNLLMTLRLWSSRAKRSGSGVKQTLNFDLLKLAGDVESNPGPTSMDWIWRILFLVGAATGAHSFEQSALTQPASVSGSPGQSITISCTGTSSDVGGYNYVSWYQQHPGKAPKLMIYDVSNRPSGVSNRFSGSKSGNTASLTISGLQAEDEADYYCSSYTSSSTLVYVFGTGTKVTVLTREDLKNVFPPEVAVFEPSKAEIAHTQKATLVCLATGFYPDHVELSWWVNGKEVHSGVCTDPQPLKEQPALNDSRYCLSSRLRVSATFWQNPRNHFRCQVQFYGLSENDEWTQDRAKPVTQIVSAEAWGRADCGITSASYHQGVLSATILYEILLGKATLYAVLVSALVLMAMVKRKDSRGRAKRSGSGATNFSLLKQAGDVEENPGPSRGHMTEYKPTVRLATRDDVPRAVRTLAAAFADYPATRHTVDPDRHIERVTELQELFLTRVGLDIGKVWVADDGAAVAVWTTPESVEAGAVFAEIGPRMAELSGSRLAAQQQMEGLLAPHRPKEPAWFLATVGVSPDHQGKGLGSAVVLPGVEAAERAGVPAFLETSAPRNLPFYERLGFTVTADVEVPEGPRTWCMTRKPGA
B2: 031517-W03 (protein)
chain: MALPVTALLLPLALLLHAARPLEGKPIPNPLLGLDSTGSGEDLKNVFPPEVAVFEPSKAEIAHTQKATLVCLATGFYPDHVELSWWVNGKEVHSGVCTDPQPLKEQPALNDSRYCLSSRLRVSATFWQNPRNHFRCQVQFYGLSENDEWTQDRAKPVTQIVSAEAWGRADCGITSASYHQGVLSATILYEILLGKATLYAVLVSALVLMAMVKRKDSRGRAKRSGSGATNFSLLKQAGDVEENPGPTSMALPVTALLLPLALLLHAARPEIVLTQSPSSLSASVGDRVTITCRASSSLSFMHWYQQKPGKAPKPWIYATSNLASGVPSRFSGSGSGTDYTLTISSLQPEDFATYFCHQWSSNPLTFGGGTKVEIKGGGGSGGGGSGGGGSQVQLVQSGAEVKKPGASVKVSCKASGYTFTSYNMHWVRQAPGQRLEWIGAIYPGNGDTSYNQKFKGRVTVTRDTSANTAYMELSSLKSEDTAVYYCARSHYGSNYVDYFDYWGQGTLVTVSSTREQKLISEEDGSGIQNPDPAVYQLRDSKSSDKSVCLFTDFDSQTNVSQSKDSDVYITDKCVLDMRSMDFKSNSAVAWSNKSDFACANAFNNSIIPEDTFFPSSDVPCDVKLVEKSFETDTNLNFQNLSVIGFRILLLKVAGFNLLMTLRLWSSRAKRSGSGVKQTLNFDLLKLAGDVESNPGPSRGHMTEYKPTVRLATRDDVPRAVRTLAAAFADYPATRHTVDPDRHIERVTELQELFLTRVGLDIGKVWVADDGAAVAVWTTPESVEAGAVFAEIGPRMAELSGSRLAAQQQMEGLLAPHRPKEPAWFLATVGVSPDHQGKGLGSAVVLPGVEAAERAGVPAFLETSAPRNLPFYERLGFTVTADVEVPEGPRTWCMTRKPGA

System: target antigen-expressing cell line
Experiment: Jurkat NFAT-GFP assay, coculture with target cell lines expressing the respective target antigen (summary Table 10A)
Type: cell-based, human
Parameters: key: The signs +/−, +, 2+ etc. after the name of the cell lines indicate the relative degree of positivity on the Jurkat-NFAT-GFP assay as measured by the % GFP positive cells; +: relative degree of positivity on the Jurkat-NFAT-GFP assay as measured by the % GFP positive cells; 2+: relative degree of positivity on the Jurkat-NFAT-GFP assay as measured by the % GFP positive cells
Details: SIR-expressing Jurkat-NFAT-GFP cells cocultured with RAJI; relative % GFP positive cells
In short: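 Read-out: % GFP+ cells by FACS. SIR-transduced, puromycin-selected Jurkat NFAT-GFP (IL-2 promoter reporter) cocultured ~4–18 h with target line, E:T ~1:2; parental cells as control; graded +/−, +, 2+ relative to parental.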

Row | Molecule | NFAT-GFP ASSAY Positive Cell lines: RAJI
1 | B1 | RAJI (+/−)
2 | B2 | RAJI (+/−)
